Assay [1] deals with T1, cynomolgus monkey GPVI on cynomolgus monkey platelets (cynomolgus monkey, UniProt A0A2K5VXN2 21-318).
T1 construct: whole, on cells; also called simian platelets
T1 sequence: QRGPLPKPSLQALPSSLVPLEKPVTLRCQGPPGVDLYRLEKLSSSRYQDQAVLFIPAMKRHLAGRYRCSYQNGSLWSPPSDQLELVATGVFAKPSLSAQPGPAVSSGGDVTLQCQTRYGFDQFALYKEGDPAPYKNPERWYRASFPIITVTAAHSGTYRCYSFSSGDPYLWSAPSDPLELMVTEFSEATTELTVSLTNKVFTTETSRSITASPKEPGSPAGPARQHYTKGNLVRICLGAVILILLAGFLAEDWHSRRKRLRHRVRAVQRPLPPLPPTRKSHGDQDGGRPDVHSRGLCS
Nature of the assay: homologous competitive binding of 125I-labelled antibody on washed cynomolgus monkey platelets, n=3, mean±S.E. The protocol:
(§1) ACD-A (acid citrate-dextrose) was added to the PRPs prepared from citrated blood obtained from healthy human or cynomolgus monkey to adjust the pH to 6.5. The obtained PRPs were collected by centrifugation at 2,000 rpm. The pelleted platelets were washed with HEPES Buffer (pH was adjusted to 6.5 with ACD-A). An appropriate quantity of HEPES Buffer (pH 7.4) was added to prepare platelet suspension. The number of platelets were determined with SYSMEX® F-820 (Sysmex Co.), then the above-described platelet suspension was diluted with HEPES buffer (pH 7.4) to platelet count at 6×10⁵ cells/μL.
(§2) To the diluted washed platelets, the labeled and non-labeled antibodies were added at final concentrations of 3 nM and 0-1250 nM, respectively, and mixed to obtain platelet count at 3×10⁵ cells/μL. After incubating the mixture on the ice for one hour, the reactant was passed through 30% sucrose/HEPE buffer (pH 7.4) layered column and centrifuged at 12,000 g for 5 min in order to separate the platelets and non-bound antibodies. The radioactivity of each fraction was measured using automatic gamma counter 1470 WIZARD (PerkinElmer Japan). Data was analyzed using GraphPad Prism software (Graph Pad Software, Inc.).

Assay [2] addresses T2, human platelet membrane glycoprotein VI (GPVI) on human platelets (human, UniProt Q9HCN6 21-339).
T2 construct: whole, on cells
T2 sequence (looked up): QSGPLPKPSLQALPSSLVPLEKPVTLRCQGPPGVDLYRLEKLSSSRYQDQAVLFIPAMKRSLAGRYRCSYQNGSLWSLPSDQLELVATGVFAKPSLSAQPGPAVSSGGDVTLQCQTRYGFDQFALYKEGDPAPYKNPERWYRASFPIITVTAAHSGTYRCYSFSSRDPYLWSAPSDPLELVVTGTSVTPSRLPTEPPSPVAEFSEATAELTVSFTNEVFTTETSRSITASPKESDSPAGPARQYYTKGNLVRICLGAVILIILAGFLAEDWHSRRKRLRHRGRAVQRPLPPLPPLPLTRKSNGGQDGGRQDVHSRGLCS
Nature of the assay: homologous competitive binding of 125I-labelled antibody on washed human platelets, n=3, mean±S.E. As to the method: as §1, §2

Assay [3] has as its target T3, mouse GPVI extracellular region-human Fc fusion protein (mGPVI-hFc) (mouse).
T3 construct: whole fusion entry; also called GPVI-MMM-hFc; mouse GPVI-Fc
Description: competition ELISA, soluble GPVI-Fc against immobilised hGPVI-hFc. As to the method: To the plate, wherein hGPVI-hFc has been immobilized at 4 μg/mL, a mixture of peroxidase-labeled F1232-37-2 or cF1232-37-2 by the method described in EXAMPLE 14, and hGPVI-hFc, mGPVI-hFc, hGPVI-mL3-hFc, wherein these were prepared in EXAMPLE 7, or hGPVI-K59E-hFc (a fusion protein consisting of one amino acid mutated human GPVI extracellular region, wherein lysine at 59 of human GPVI is substituted for glutamic acid, and human Fc), which has been prepared by the same method as that of EXAMPLE 1 and diluted with 0.1% BSA/PBS was added, and the plate was incubated at 37° C. for one hour. After incubation, the mixture was developed using TMB solution, and absorbance at 450 nm was measured.
On the technique in general: An ELISA detects its analyte on a solid surface through an enzyme-linked reagent.

Assay [4] has as its target T4, human GPVI extracellular region-human Fc fusion protein (hGPVI-hFc) (human).
T4 construct: Expressed in COS-1, purified on Protein A; also called GPVI-HHH-hFc; hGPVIHHH-hFc
Description: ELISA on immobilised hGPVI-hFc; ++ = absorbance 1.0 to 2.0. As to the method:
The hGPVI-hFc prepared by EXAMPLE 1B was diluted with D-PBS to 2 μg/mL and added to immunoplate (Maxisorp, NUNC) at 50 μL/well. After incubation at 37° C. for one hour, the well was washed five times with ion-exchanged water, and D-PBS (pH7.4) containing 2% STABILGUARD® (chemical solutions for stabilizing biological molecules) (Surmodics) was added to each well in 100 μL for blocking. Next, culture supernatant was added to each well and incubated at 37° C. for one hour. After incubation, the well was washed three times with the saline containing 0.05% TWEEN®20 (Polyoxyethylene (20) sorbitan monolaurate). […] After incubation at 37° C. for one hour, washing in a similar manner was performed five times and TMB solution (BIOFX® (reagents for scientific or medical research) was added to each well. After ten minutes at room temperature, the reaction was terminated with 0.5 M sulfuric acid solution. Subsequently, absorbance at 450 nm was measured with the plate spectrophotometer (Multiscan JX, Dainippon Pharmaceutical). As a result, the cell whose culture supernatant reacted to hGPVI-hFc was selected and a cloning with limiting dilution method (“The Introduction to Monoclonal Antibody Experimental Procedure” written by Tamie Andoh and Takeshi Chiba (Kodansha, p97)) was performed. […]

Assay [5] addresses T4, human GPVI extracellular region-human …. Nature of the assay: SPR BIACORE 3000 as in Example 5 (the reference itself).

T3 sequence (chain, as listed by the source limits assumed): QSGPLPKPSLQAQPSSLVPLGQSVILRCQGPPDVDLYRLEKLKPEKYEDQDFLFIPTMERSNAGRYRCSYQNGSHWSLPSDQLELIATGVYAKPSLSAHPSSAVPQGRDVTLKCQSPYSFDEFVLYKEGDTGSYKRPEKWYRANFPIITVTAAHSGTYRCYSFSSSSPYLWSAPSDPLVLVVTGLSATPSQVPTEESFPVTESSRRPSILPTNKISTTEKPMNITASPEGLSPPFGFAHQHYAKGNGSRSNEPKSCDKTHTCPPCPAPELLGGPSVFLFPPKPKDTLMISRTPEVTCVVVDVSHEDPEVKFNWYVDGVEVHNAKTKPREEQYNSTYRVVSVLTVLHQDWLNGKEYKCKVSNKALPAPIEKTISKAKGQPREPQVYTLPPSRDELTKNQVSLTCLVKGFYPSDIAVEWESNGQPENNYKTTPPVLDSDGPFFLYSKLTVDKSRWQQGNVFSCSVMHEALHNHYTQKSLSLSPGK

B1: cF1232-37-2 (mouse/human chimeric F1232-37-2) (antibody, V domains shown)
VH: VQLQQSGPELVRPGESVKISCKGSGYTFTDYAIHWVKLSHAKSLEWIGVISIYYDDTNYNQKFKGKATMTVDKSSSTAYLELARLTSEDSAIYYCARRRDSSGPYAMDYWGQGTSVTVSS
VL: DIVLTQSPASLAVSLGQRATISCRASESVDSYGNSFMHWYQQKPGQPPKLLIYRASNLESGIPARFSGSGSRTDFTLTINPVEADDVATYYCQQSNEDPYTFGGGTKLEIKR
notes: V regions of F1232-37-2 on human IgG4 (Cgamma4) and human Ckappa constant regions; made in COS-1 (/COS) or CHO (/CHO); both preparations are kept under this one id; also called cF1232-37-2/COS; cF1232-37-2/CHO
On to B1, for which the Kd (commonly the free concentration of one partner at which half of the binding sites on the other are occupied at equilibrium, for simple one-to-one binding) in assay [1] came out at 20 nM; in assay [2], 17 nM. In addition, the binding result in assay [3] is listed as “no binding”.

B2: F1232-37-2 (antibody, V domains shown)
VH: VQLQQSGPELVRPGESVKISCKGSGYTFTDYAIHWVKLSHAKSLEWIGVISIYYDDTNYNQKFKGKATMTVDKSSSTAYLELARLTSEDSAIYYCARRRDSSGPYAMDYWGQGTSVTVSS
VL: DIVLTQSPASLAVSLGQRATISCRASESVDSYGNSFMHWYQQKPGQPPKLLIYRASNLESGIPARFSGSGSRTDFTLTINPVEADDVATYYCQQSNEDPYTFGGGTKLEIKR
notes: mouse hybridoma monoclonal antibody; also called F1232-37-2 antibody; mouse monoclonal antibody F1232-37-2
B2 registered an absorbance in assay [4] of 1 to 2 od. In addition, in assay [5], the “KD (Relative value)” value was 1 relative to F1232-37-2 = 1. Also, the binding result in assay [3] was “no binding”.
